Source: patent US20120115830A1 (QUEEN S UNIVERSITY OF BELFAST, published 2012)

T1: XAP3 cloned in-frame into pACT plasmid (UniProt Q9BYM8 1-510)
T1 construct: Mammalian two-hybrid construct expressed in L132 cells; also called XAP3 (pACT); not shown: fusion partner encoded by the pACT vector
T1 sequence (looked up): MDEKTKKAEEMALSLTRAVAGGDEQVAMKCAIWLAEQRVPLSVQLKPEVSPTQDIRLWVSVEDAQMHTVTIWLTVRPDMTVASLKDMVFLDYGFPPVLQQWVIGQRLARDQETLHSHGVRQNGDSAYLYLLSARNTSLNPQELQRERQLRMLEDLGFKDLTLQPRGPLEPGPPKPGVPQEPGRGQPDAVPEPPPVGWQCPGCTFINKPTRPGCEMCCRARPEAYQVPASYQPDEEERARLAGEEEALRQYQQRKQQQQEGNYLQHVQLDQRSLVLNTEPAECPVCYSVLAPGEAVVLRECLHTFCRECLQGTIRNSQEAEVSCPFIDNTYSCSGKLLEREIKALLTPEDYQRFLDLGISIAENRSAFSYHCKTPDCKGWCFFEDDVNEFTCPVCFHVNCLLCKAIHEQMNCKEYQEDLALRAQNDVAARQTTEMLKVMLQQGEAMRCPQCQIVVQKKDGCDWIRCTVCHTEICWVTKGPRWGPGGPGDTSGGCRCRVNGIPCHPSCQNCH

T2: USP19 cloned in-frame into pACT plasmid (UniProt O94966 1-1318)
T2 sequence (looked up): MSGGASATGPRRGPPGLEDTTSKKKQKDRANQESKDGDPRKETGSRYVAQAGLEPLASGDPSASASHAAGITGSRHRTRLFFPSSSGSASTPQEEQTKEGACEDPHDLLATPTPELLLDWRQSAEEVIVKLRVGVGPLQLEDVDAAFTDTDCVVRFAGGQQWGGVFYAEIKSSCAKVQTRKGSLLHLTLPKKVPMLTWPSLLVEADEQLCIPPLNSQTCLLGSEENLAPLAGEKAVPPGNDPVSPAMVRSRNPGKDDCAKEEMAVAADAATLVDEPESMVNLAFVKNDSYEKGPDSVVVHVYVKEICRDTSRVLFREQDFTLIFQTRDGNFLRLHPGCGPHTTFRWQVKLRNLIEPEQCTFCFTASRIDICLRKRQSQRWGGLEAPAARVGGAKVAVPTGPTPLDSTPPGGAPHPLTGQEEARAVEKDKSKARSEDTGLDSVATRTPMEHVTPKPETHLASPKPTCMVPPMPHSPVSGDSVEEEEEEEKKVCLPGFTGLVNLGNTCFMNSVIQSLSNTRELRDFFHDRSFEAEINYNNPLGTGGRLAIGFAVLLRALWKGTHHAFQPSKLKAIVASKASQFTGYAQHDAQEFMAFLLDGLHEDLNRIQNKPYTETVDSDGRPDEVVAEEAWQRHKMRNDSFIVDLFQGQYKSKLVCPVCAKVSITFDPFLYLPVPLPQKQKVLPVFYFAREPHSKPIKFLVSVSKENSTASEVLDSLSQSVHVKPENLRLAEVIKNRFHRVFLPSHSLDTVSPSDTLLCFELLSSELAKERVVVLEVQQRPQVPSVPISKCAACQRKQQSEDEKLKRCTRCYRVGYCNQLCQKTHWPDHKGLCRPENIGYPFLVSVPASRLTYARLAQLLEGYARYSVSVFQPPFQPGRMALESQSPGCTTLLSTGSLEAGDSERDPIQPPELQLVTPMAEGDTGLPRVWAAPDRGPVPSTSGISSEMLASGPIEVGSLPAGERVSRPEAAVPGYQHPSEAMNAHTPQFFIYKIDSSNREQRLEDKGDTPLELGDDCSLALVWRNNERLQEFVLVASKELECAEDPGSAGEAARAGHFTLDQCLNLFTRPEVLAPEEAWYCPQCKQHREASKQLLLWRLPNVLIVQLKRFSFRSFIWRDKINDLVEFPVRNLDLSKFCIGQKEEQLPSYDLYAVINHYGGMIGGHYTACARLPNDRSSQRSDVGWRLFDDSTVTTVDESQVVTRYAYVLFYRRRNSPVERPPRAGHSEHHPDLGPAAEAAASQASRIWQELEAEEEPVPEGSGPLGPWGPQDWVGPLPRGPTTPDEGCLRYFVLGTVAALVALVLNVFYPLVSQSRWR


Legend:
[1] = target: T1, XAP3 cloned in-frame into pACT plasmid; experiment: mammalian two-hybrid (firefly luciferase) in L132 cells
Experimental: In order to confirm the interactions detected using the yeast two-hybrid system and determine that the interaction can take place in a biologically relevant model, the Checkmate Mammalian Two-Hybrid System (Promega, Cat no. E2440) was used. Full length FKBPL and a variety of FKBPL mutants were cloned ‘in-frame’ into pBIND plasmid according to manufacturer's instructions. XAP3 and USP19 were cloned ‘in-frame’ into pACT plasmid according to manufacturer's instructions. 2×10⁴ L132 cells were plated in triplicate into a 96 well plate for each transfection condition and incubated overnight at 37° C. with MEM containing 10% FCS. FKBPL, XAP3 and USP19 plasmids were transfected into cells using Lipofectamine Plus (Invitrogen, Cat no.) and incubated at 37° C. for 24 h. The plate was allowed to equilibrate to room temperature then 75 μl room temperature Dual-Glo Luciferase Reagent (Promega, Cat no. E2920) was added to each well, mixed thoroughly and wrapped in tinfoil. After 15 minutes incubation at room temperature, the Firefly luminescence was measured using a GENios platereader (Tecan). […] After 15 minutes incubation at room temperature, the Renilla luminescence was measured.
Following correction, increased firefly luminescence over self-activations controls indicated a positive interaction between the proteins.

[2] = target: T2, USP19 cloned in-frame into pACT plasmid; experiment: cell-based or functional assay
[3] = target: T1, XAP3 cloned in-frame into pACT plasmid; experiment: cell-based or functional assay

| Binder | binding result [1] | induction of firefly luminescence [2] [fold] | induction of firefly luminescence [3] [fold] |
| --- | --- | --- | --- |
| FKBPLΔ200 (other, not shown: large carriers) METPPVNTIGEKDTSQPQQEWEKNLRENLDSVIQIRQQPRDPPTETLELEVSPDPASQILEHTQGAEKLVAELEGDSHKSHGSTSQMPEALQASDLWYCPDGSFVKKIVIRGHGLDKPKLGSCCRVLALGFPFGSGPPEGWTELTMGVGPWREETWGELIEKCLESMCQGEEAELQLPGHSGPPVRLTLASFTQGRDSWE | no binding |  |  |
| Full length FKBPL cloned in-frame into pBIND plasmid (other, not shown: large carriers) METPPVNTIGEKDTSQPQQEWEKNLRENLDSVIQIRQQPRDPPTETLELEVSPDPASQILEHTQGAEKLVAELEGDSHKSHGSTSQMPEALQASDLWYCPDGSFVKKIVIRGHGLDKPKLGSCCRVLALGFPFGSGPPEGWTELTMGVGPWREETWGELIEKCLESMCQGEEAELQLPGHSGPPVRLTLASFTQGRDSWELETSEKEALAREERARGTELFRAGNPEGAARCYGRALRLLLTLPPPGPPERTVLHANLAACQLLLGQPQLAAQSCDRVLEREPGHLKALYRRGVAQAALGNLEKATADLKKVLAIDPKNRAAQEELGKVVIQGKNQDAGLAQGLRKMFG |  | 10 | 20 |
